In patent publication US20250043001A1 (published 2025):

Molecular target: human CD28 (human, UniProt P10747 19-152)
Test: -; scFv VHVL

Kd: 230 nM
B1: 1A7_H1.14_L1 (antibody, V domains shown)
VH: EVQLLESGGGLVQPGGSLRLSCAASGFTFSSYYMSWVRQAPGKGLEWVSTISESGDSTYYADSVKGRFTISRDNSKNTLYLQMNSLRAEDTAVYYCAKSGPGLRQVGFDYWGQGTLVTVSS
VL: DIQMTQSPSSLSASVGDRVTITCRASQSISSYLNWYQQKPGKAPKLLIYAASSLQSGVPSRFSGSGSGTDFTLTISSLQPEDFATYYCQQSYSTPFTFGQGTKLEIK
